No end group written: not given here. *: point of attachment. Biotin = O=C1N[C@H]2[C@H](CS[C@H]2CCCCC(=O)*)N1
Key:
[1] = biological target: T1, recombinant MS4A4A soluble polypeptide JS1; test: ELISA, 1 ug/ml antibody
T1 construct: also called JS1.His; loop grafted antigen
Procedure, shortened: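 Biotinylated antigen 1 μg/ml captured on streptavidin, 1 h; wash x3. Humanized IgG1/kappa Ab (Expi293) 1, 0.33, 0.11 μg/ml, 1 hr RT shaking; wash x3. HRP anti-human kappa 1/2500.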

[2] = biological target: T2, huMS4A4A-ECL2 free-peptide (human); test: peptide ELISA, murine antibody
T2 construct: synthetic, free or BSA-conjugated, coated on the plate; also called human MS4A4A ECL2 peptide; huMS4A4A-ELC2 free-peptide
T2 peptide: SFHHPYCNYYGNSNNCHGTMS
Protocol: Coated plates were then blocked with ELISA diluent (PBS+0.5% BSA+0.05% Tween20) for 1-hour, washed 3×300 μL in PBST (PBS+0.05% Tween20, Thermo Cat#28352), and then the antibodies were added to the plate ([…]). After 30 mins incubation (room temperature, with shaking), the plates were washed 3×300 μL in PBST. […] After a final set of washes (3×300 μL in PBST), 50 μL of TMB substrate (BioFx Cat#TMBW-1000-01) was added and the reaction was then quenched after 5-10 mins with 50 μL of stop solution (BioFx Cat#BSTP-1000-01). The quenched reaction wells were detected for absorbance at […] with a BioTek Synergy Microplate Reader using GENS 2.04 software.

[3] = biological target: T3, recombinant MS4A4A soluble polypeptide JS5; test: ELISA, 0.4 ug/ml antibody
T3 construct: also called JS5.His

[4] = biological target: T4, negative control polypeptide JS4; test: ELISA, biotin-antigen on streptavidin plate
T4 construct: negative control for JS1; also called JS4.His
Protocol: (§1) Anti-MS4A4A antibodies of the present disclosure were tested for their ability to bind to the different recombinant MS4A4A soluble polypeptides, as described in Example 2, as follows. Nucleic acid encoding the VH and VL domains of humanized anti-MS4A4A antibodies of the present disclosure were cloned into pcDNA3.4 vector which contains either the human IgG1 heavy chain constant domain or human kappa constant domain. The humanized anti-MS4A4A antibodies were expressed in Expi293 cells and were purified by Mab select antibody purification resin (GE Healthcare Life Science, cat#17519902) following the manufacture's protocol. ELISA was performed to measure binding of anti-MS4A4A antibodies of the present disclosure the recombinant MS4A4A soluble polypeptides. 1 μg/ml biotinylated antigens were preincubated on the streptavidin-coated ELISA plates (Thermo Scientific, cat#PI15120) for 1 hour. Plates were washed 3 times, followed by the addition of antibodies (1 μg/ml, 0.33 μg/ml, and 0.11 μg/ml antibodies. Plates were incubated at room temperature with shaking for 1 hr, washed 3 times, then 1/2500 dilution of HRP conjugates goat anti human kappa antibodies added (SigmaAldrich cat#. A7164-1ML).

[5] = biological target: T5, negative control polypeptide JS10; test: ELISA, biotin-antigen on streptavidin plate
T5 construct: negative control for JS5 and JS6; also called JS10.His
Protocol: as §1

[6] = biological target: T6, recombinant MS4A4A soluble polypeptide JS6; test: ELISA, biotin-antigen on streptavidin plate
T6 construct: also called JS6.His
Protocol: as §1

[7] = biological target: T3, recombinant MS4A4A soluble polypeptide …; test: ELISA, biotin-antigen on streptavidin plate
Protocol: as §1

[8] = biological target: T1, recombinant MS4A4A soluble polypeptide …; test: ELISA, biotin-antigen on streptavidin plate
Protocol: as §1

[9] = biological target: T7, peptide 4A.12 (human); test: SPR array, biotin-peptide on streptavidin chip
T7 peptide: Biotin-GNSNNCHGTMSILMG
Text: (§2) A panel of overlapping peptides derived from the extracellular loops (ECLs) of human MS4A4A (SEQ ID NO:1) were synthesized by JPT peptides (Berlin, Germany). These peptides were 15 amino acids in length, each offset by 2 amino acids. The peptides were biotinylated on the N-terminus. Peptides 4A.1 through 4A.4 were derived from human MS4A4A ECL1 and surrounding regions. Peptides 4A.5 through 4A.12 were derived from human MS4A4A ECL2 and surrounding regions.
(§3) The peptide library was printed onto a streptavidin-coated chip (Xantec SAD50M, Dusseldorf, Germany) using the Continuous Flow Microspotter (CFM). […] The peptide library was immobilized onto the chip at 250 nM per peptide diluted into HBS-EP+ buffer (Teknova Cat #H8022) with 1 mg/ml BSA and 1 μg/ml mouse IgG-Biotin. Following immobilization, the chip surface was deactivated with 1M ethanolamine at pH 8.5 for 10 minutes. Hybridoma supernatants and purified anti-MS4A4A antibodies were diluted in HBS-EP+ buffer with 1 mg/ml BSA and injected onto the chip. Duplicate measurements for each anti-MS4A4A antibody were taken to ensure reproducibility. Binding characteristics were determined for each peptide-antibody combination, allowing the mapping of the linear peptide region each antibody interacts with.

[10] = biological target: T8, peptide 4A.2 (human); test: SPR array, biotin-peptide on streptavidin chip
T8 peptide: Biotin-MMCMASNTYGSNPIS
Text: as §2, §3

[11] = biological target: T9, peptide 4A.5 (human); test: SPR array, biotin-peptide on streptavidin chip
T9 peptide: Biotin-LAFYSFHHPYCNYYG
Text: as §2, §3

[12] = biological target: T10, peptide 4A.3 (human); test: SPR array, biotin-peptide on streptavidin chip
T10 peptide: Biotin-CMASNTYGSNPISVY
Text: as §2, §3

[13] = biological target: T11, peptide 4A.11 (human); test: SPR array, biotin-peptide on streptavidin chip
T11 peptide: Biotin-YYGNSNNCHGTMSIL
Text: as §2, §3

[14] = biological target: T12, peptide 4A.8 (human, cysteine pairing not given here); test: SPR array, biotin-peptide on streptavidin chip
T12 peptide: Biotin-HHPYCNYYGNSNNCH
Text: as §2, §3

[15] = biological target: T13, peptide 4A.7 (human); test: SPR array, biotin-peptide on streptavidin chip
T13 peptide: Biotin-SFHHPYCNYYGNSNN
Text: as §2, §3

[16] = biological target: T14, peptide 4A.9 (human, cysteine pairing not given here); test: SPR array, biotin-peptide on streptavidin chip
T14 peptide: Biotin-PYCNYYGNSNNCHGT
Text: as §2, §3

[17] = biological target: T15, peptide 4A.1 (human); test: SPR array, biotin-peptide on streptavidin chip
T15 peptide: Biotin-ITMMCMASNTYGSNP
Text: as §2, §3

[18] = biological target: T16, peptide 4A.10 (human, cysteine pairing not given here); test: SPR array, biotin-peptide on streptavidin chip
T16 peptide: Biotin-CNYYGNSNNCHGTMS
Text: as §2, §3

[19] = biological target: T17, peptide 4A.4 (human); test: SPR array, biotin-peptide on streptavidin chip
T17 peptide: Biotin-ASNTYGSNPISVYIG
Text: as §2, §3

[20] = biological target: T18, peptide 4A.6 (human); test: SPR array, biotin-peptide on streptavidin chip
T18 peptide: Biotin-FYSFHHPYCNYYGNS
Text: as §2, §3

B1: anti-MS4A4A antibody 4A-21 (antibody, V domains shown)
VH: QIQLVQSGPELKKPGETVKISCKASGYIFTSYGLSWVKQTPGKGLKWMGWINTYSGVPTYANDFKGRFAFSLETSASTTYLRINNLKNDDTATYFCARSLVDYWGQGTPLTVSS
VL: not shown
notes: murine parental; tested as mouse IgG1 or as human IgG1 Fc chimera (hFc), told under assay; also called 4A-21.hFc
- OD450 [1]: 1.96
- binding result [2]: binds
- OD450 [3]: 0.925
- ELISA OD [4]: 0.138
- ELISA OD [5]: 0.112
- ELISA OD [6]: 1.67
- ELISA OD [7]: 1.73
- ELISA OD [8]: 2.02
- SPR binding response [9]: -5.2
- SPR binding response [10]: -11.5
- SPR binding response [11]: 383
- SPR binding response [12]: -10.6
- SPR binding response [13]: -6.5
- SPR binding response [14]: 309
- SPR binding response [15]: 446
- SPR binding response [16]: 225
- SPR binding response [17]: -11.2
- SPR binding response [18]: -4.5
- SPR binding response [19]: -7.9
- SPR binding response [20]: 486

From patent US20210079074A1 (Alector, published 2021)
